Patent US7312188B2, “Peptide derivatives having β-secretase inhibitory activity” (priority 2003, dated 2007)
Numbered stars: 1 amine (or outer) side, 2 acyl side, 3 side chain; on linkers, the order of the positions; unused ones are H or OH. Square brackets hold non-standard residues; d marks the D form. Apns = amino acid residue of (2S,3S)-3-amino-2-hydroxy-4-phenylbutanoic acid, O=C([C@@H](O)[C@H](Cc1ccccc1)N[*:1])[*:2]; β3hPhe(2R-OH) = O=C([C@H](O)[C@H](Cc1ccccc1)N[*:1])[*:2]

Each compound was assayed against T1, recombinant human BACE-1 (rhBACE-1) (Homo sapiens, UniProt P56817) (assay: BACE1 inhibitory activity, reverse phase HPLC quantitation of N-terminal fragment of fluorogenic substrate). Settings: 1 μL of inhibitor solution in DMSO (100 μM) in 50 μL reaction; MES buffer pH 5.0; 37° C., 60 minutes.
T1 construct: expressed as only an extracellular region (amino acid 1-460 residues) of recombinant human β-secretase; His tag (C); purchased R&D systems (Minneapolis, Minn.); host or cells: murine myeloma cell line NS0
Assay type: biochemical
Summary of the method: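 rhBACE-1 ectodomain (residues 1-460, C-terminal His tag, NS0-expressed) in MES buffer pH 5.0 with inhibitor (diluted in DMSO, 100 μM solution) and MCA/DNP fluorogenic peptide (250 μM stock), 60 min at 37 °C, TCA stop. N-terminal fragment quantified by reverse-phase HPLC fluorescence (Ex 328/Em 393 nm); inhibition % derived.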

T1 sequence (P56817 22-460 limits assumed): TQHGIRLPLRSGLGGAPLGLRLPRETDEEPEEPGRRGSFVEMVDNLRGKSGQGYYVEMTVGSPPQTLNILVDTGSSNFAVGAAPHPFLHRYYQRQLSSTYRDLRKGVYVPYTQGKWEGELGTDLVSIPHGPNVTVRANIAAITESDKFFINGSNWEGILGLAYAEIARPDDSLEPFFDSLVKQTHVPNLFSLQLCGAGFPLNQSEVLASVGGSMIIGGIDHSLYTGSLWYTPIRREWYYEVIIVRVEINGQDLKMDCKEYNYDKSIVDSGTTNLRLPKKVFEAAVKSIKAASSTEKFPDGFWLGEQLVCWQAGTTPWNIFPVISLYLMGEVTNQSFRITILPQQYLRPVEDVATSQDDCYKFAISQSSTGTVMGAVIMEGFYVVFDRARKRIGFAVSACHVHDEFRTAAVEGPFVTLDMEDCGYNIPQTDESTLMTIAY

Activity (BACE1 inhibition %) [%]	Compound	inhibition at 100 µM (stock) [%]
53.38	H-Glu-Val-Leu-Apns-Asp-Ala-Glu-Phe-OH ({H2N-Glu-Val-Leu-Apns}-DAEF-OH; SMILES CC(C)C[C@H](NC(=O)[C@@H](NC(=O)[C@@H](N)CCC(=O)O)C(C)C)C(=O)N[C@@H](Cc1ccccc1)[C@H](O)C(=O)N[C@@H](CC(=O)O)C(=O)N[C@@H](C)C(=O)N[C@@H](CCC(=O)O)C(=O)N[C@@H](Cc1ccccc1)C(=O)O) [Example 18]	–
53.71	H-Glu-Val-Leu-Pns-Ala-Ala-Glu-Phe-OH (H-EVL[β3hPhe(2R-OH)]AAEF-OH; SMILES CC(C)C[C@H](NC(=O)[C@@H](NC(=O)[C@@H](N)CCC(=O)O)C(C)C)C(=O)N[C@@H](Cc1ccccc1)[C@@H](O)C(=O)N[C@@H](C)C(=O)N[C@@H](C)C(=O)N[C@@H](CCC(=O)O)C(=O)N[C@@H](Cc1ccccc1)C(=O)O) [Example 13]	–
60.23	H-Glu-Val-Leu-Pns-Ala-Phe-Glu-Phe-OH (H-EVL[β3hPhe(2R-OH)]AFEF-OH; SMILES CC(C)C[C@H](NC(=O)[C@@H](NC(=O)[C@@H](N)CCC(=O)O)C(C)C)C(=O)N[C@@H](Cc1ccccc1)[C@@H](O)C(=O)N[C@@H](C)C(=O)N[C@@H](Cc1ccccc1)C(=O)N[C@@H](CCC(=O)O)C(=O)N[C@@H](Cc1ccccc1)C(=O)O) [Example 26]	–
66.79	H-Glu-Val-Leu-Pns-Asp-Ala-Glu-Gly-OH (H-EVL[β3hPhe(2R-OH)]DAEG-OH; SMILES CC(C)C[C@H](NC(=O)[C@@H](NC(=O)[C@@H](N)CCC(=O)O)C(C)C)C(=O)N[C@@H](Cc1ccccc1)[C@@H](O)C(=O)N[C@@H](CC(=O)O)C(=O)N[C@@H](C)C(=O)N[C@@H](CCC(=O)O)C(=O)NCC(=O)O) [Example 45]	–
71.60	H-Glu-Val-Leu-Pns-Asp-Ala-Glu-OH [Example 32]	–
56.57	H-Glu-Val-Leu-Pns-Asp-Ala-Leu-Phe-OH (H-EVL[β3hPhe(2R-OH)]DALF-OH; SMILES CC(C)C[C@H](NC(=O)[C@H](C)NC(=O)[C@H](CC(=O)O)NC(=O)[C@H](O)[C@H](Cc1ccccc1)NC(=O)[C@H](CC(C)C)NC(=O)[C@@H](NC(=O)[C@@H](N)CCC(=O)O)C(C)C)C(=O)N[C@@H](Cc1ccccc1)C(=O)O) [Example 30]	–
66.56	H-Glu-Val-Leu-Pns-Asp-Ala-Phe-Phe-OH (H-EVL[β3hPhe(2R-OH)]DAFF-OH; SMILES CC(C)C[C@H](NC(=O)[C@@H](NC(=O)[C@@H](N)CCC(=O)O)C(C)C)C(=O)N[C@@H](Cc1ccccc1)[C@@H](O)C(=O)N[C@@H](CC(=O)O)C(=O)N[C@@H](C)C(=O)N[C@@H](Cc1ccccc1)C(=O)N[C@@H](Cc1ccccc1)C(=O)O) [Example 31]	–
81.23	H-Glu-Val-Leu-Pns-Asp-Gly-Glu-Phe-OH (H-EVL[β3hPhe(2R-OH)]DGEF-OH; SMILES CC(C)C[C@H](NC(=O)[C@@H](NC(=O)[C@@H](N)CCC(=O)O)C(C)C)C(=O)N[C@@H](Cc1ccccc1)[C@@H](O)C(=O)N[C@@H](CC(=O)O)C(=O)NCC(=O)N[C@@H](CCC(=O)O)C(=O)N[C@@H](Cc1ccccc1)C(=O)O) [Example 43]	–
63.71	H-Glu-Val-Leu-Pns-Asp-OH [Example 34]	–
54.52	H-Glu-Val-Leu-Pns-Glu-Ala-Glu-Phe-OH (H-EVL[β3hPhe(2R-OH)]EAEF-OH; SMILES CC(C)C[C@H](NC(=O)[C@@H](NC(=O)[C@@H](N)CCC(=O)O)C(C)C)C(=O)N[C@@H](Cc1ccccc1)[C@@H](O)C(=O)N[C@@H](CCC(=O)O)C(=O)N[C@@H](C)C(=O)N[C@@H](CCC(=O)O)C(=O)N[C@@H](Cc1ccccc1)C(=O)O) [Example 15]	–
56.72	H-Glu-Val-Leu-Pns-Gly-Ala-Glu-Phe-OH (H-EVL[β3hPhe(2R-OH)]GAEF-OH; SMILES CC(C)C[C@H](NC(=O)[C@@H](NC(=O)[C@@H](N)CCC(=O)O)C(C)C)C(=O)N[C@@H](Cc1ccccc1)[C@@H](O)C(=O)NCC(=O)N[C@@H](C)C(=O)N[C@@H](CCC(=O)O)C(=O)N[C@@H](Cc1ccccc1)C(=O)O) [Example 42]	–
96.66	β-ODap-Val-Leu-Pns-Asp-Ala-Gly-Phe-OH ({β‑ODap}-VL[β3hPhe(2R-OH)]DAGF-OH) [Example 63]	–

More lines, now with the values behind:

Compound	Activity (BACE1 inhibition %) [%]	inhibition at 100 µM (stock) [%]
COC(=O)c1cccc(C(=O)NC[C@H](N)C(=O)N[C@H](C(=O)N[C@@H](CC(C)C)C(=O)N[C@@H](Cc2ccccc2)[C@@H](O)C(=O)Nc2cccc(C(=O)O)c2)C(C)C)c1 [Example 183]	–	52.1
CC(C)C[C@H](NC(=O)[C@@H](NC(=O)[C@@H](N)CCC(=O)O)C(C)C)C(=O)N[C@@H](Cc1ccccc1)[C@@H](O)C(=O)Nc1cc(Br)c(OCC(=O)O)c(Br)c1 [Example 184]	–	88.1
CC(C)C[C@H](NC(=O)[C@@H](NC(=O)[C@@H](N)CNC(=O)c1nnn[nH]1)C(C)C)C(=O)N[C@@H](Cc1ccccc1)[C@@H](O)C(=O)Nc1cccc(-c2nnn[nH]2)c1 [Example 185]	–	100
CC(C)C[C@H](NC(=O)[C@@H](NC(=O)[C@@H](N)CNC(=O)c1[nH]c(=O)[nH]c(=O)c1F)C(C)C)C(=O)N[C@@H](Cc1ccccc1)[C@@H](O)C(=O)Nc1cccc(-c2nnn[nH]2)c1 [Example 187]	–	100
CC(C)[C@H](NC(=O)[C@@H](N)CNC(=O)c1cc(O)ccc1O)C(=O)N[C@@H](CC1CCCCC1)C(=O)N[C@@H](Cc1ccccc1)[C@@H](O)C(=O)Nc1cccc(-c2nnn[nH]2)c1 [Example 188]	–	99.5
CC(C)[C@H](NC(=O)[C@@H](N)CNC(=O)c1[nH]c(=O)[nH]c(=O)c1F)C(=O)N[C@@H](CC1CCCCC1)C(=O)N[C@@H](Cc1ccccc1)[C@@H](O)C(=O)Nc1cccc(-c2nnn[nH]2)c1 [Example 189]	–	100
CC(C)C[C@H](NC(=O)[C@@H](NC(=O)[C@@H](N)CNC(=O)c1cc(O)ccc1O)C(C)C)C(=O)N[C@@H](Cc1ccccc1)[C@@H](O)C(=O)Nc1cccc(-c2nnn[nH]2)c1 [Example 190]	–	99.3
H-Glu-Val-Leu-Pns-Ala-Glu-Glu-Phe-OH (H-EVL[β3hPhe(2R-OH)]AEEF-OH; SMILES CC(C)C[C@H](NC(=O)[C@@H](NC(=O)[C@@H](N)CCC(=O)O)C(C)C)C(=O)N[C@@H](Cc1ccccc1)[C@@H](O)C(=O)N[C@@H](C)C(=O)N[C@@H](CCC(=O)O)C(=O)N[C@@H](CCC(=O)O)C(=O)N[C@@H](Cc1ccccc1)C(=O)O) [Example 27]	78.43	–
H-Glu-Val-Leu-Pns-Asp-Ala-Gln-Phe-OH (H-EVL[β3hPhe(2R-OH)]DAQF-OH; SMILES CC(C)C[C@H](NC(=O)[C@@H](NC(=O)[C@@H](N)CCC(=O)O)C(C)C)C(=O)N[C@@H](Cc1ccccc1)[C@@H](O)C(=O)N[C@@H](CC(=O)O)C(=O)N[C@@H](C)C(=O)N[C@@H](CCC(N)=O)C(=O)N[C@@H](Cc1ccccc1)C(=O)O) [Example 28]	55.88	–
H-Glu-Val-Leu-Pns-Asp-Ala-Glu-Phe-OH (H-EVL[β3hPhe(2R-OH)]DAEF-OH; SMILES CC(C)C[C@H](NC(=O)[C@@H](NC(=O)[C@@H](N)CCC(=O)O)C(C)C)C(=O)N[C@@H](Cc1ccccc1)[C@@H](O)C(=O)N[C@@H](CC(=O)O)C(=O)N[C@@H](C)C(=O)N[C@@H](CCC(=O)O)C(=O)N[C@@H](Cc1ccccc1)C(=O)O) [Example 7]	89.65	–
H-Glu-Val-Leu-Pns-Asp-Ala-Val-Phe-OH (H-EVL[β3hPhe(2R-OH)]DAVF-OH; SMILES CC(C)C[C@H](NC(=O)[C@@H](NC(=O)[C@@H](N)CCC(=O)O)C(C)C)C(=O)N[C@@H](Cc1ccccc1)[C@@H](O)C(=O)N[C@@H](CC(=O)O)C(=O)N[C@@H](C)C(=O)N[C@H](C(=O)N[C@@H](Cc1ccccc1)C(=O)O)C(C)C) [Example 29]	57.47	–

Same assay, conditions: pH 5, 100 µM

Activity (BACE1 inhibition %) [%]	Compound
56.30	H-Glu-Val-Leu-Pns-Asp-Ala-Gly-Phe-OH [Example 44]
